Molecular target: SHANK3, Q9BYB0-1
Sequence (Q9BYB0 whole entry): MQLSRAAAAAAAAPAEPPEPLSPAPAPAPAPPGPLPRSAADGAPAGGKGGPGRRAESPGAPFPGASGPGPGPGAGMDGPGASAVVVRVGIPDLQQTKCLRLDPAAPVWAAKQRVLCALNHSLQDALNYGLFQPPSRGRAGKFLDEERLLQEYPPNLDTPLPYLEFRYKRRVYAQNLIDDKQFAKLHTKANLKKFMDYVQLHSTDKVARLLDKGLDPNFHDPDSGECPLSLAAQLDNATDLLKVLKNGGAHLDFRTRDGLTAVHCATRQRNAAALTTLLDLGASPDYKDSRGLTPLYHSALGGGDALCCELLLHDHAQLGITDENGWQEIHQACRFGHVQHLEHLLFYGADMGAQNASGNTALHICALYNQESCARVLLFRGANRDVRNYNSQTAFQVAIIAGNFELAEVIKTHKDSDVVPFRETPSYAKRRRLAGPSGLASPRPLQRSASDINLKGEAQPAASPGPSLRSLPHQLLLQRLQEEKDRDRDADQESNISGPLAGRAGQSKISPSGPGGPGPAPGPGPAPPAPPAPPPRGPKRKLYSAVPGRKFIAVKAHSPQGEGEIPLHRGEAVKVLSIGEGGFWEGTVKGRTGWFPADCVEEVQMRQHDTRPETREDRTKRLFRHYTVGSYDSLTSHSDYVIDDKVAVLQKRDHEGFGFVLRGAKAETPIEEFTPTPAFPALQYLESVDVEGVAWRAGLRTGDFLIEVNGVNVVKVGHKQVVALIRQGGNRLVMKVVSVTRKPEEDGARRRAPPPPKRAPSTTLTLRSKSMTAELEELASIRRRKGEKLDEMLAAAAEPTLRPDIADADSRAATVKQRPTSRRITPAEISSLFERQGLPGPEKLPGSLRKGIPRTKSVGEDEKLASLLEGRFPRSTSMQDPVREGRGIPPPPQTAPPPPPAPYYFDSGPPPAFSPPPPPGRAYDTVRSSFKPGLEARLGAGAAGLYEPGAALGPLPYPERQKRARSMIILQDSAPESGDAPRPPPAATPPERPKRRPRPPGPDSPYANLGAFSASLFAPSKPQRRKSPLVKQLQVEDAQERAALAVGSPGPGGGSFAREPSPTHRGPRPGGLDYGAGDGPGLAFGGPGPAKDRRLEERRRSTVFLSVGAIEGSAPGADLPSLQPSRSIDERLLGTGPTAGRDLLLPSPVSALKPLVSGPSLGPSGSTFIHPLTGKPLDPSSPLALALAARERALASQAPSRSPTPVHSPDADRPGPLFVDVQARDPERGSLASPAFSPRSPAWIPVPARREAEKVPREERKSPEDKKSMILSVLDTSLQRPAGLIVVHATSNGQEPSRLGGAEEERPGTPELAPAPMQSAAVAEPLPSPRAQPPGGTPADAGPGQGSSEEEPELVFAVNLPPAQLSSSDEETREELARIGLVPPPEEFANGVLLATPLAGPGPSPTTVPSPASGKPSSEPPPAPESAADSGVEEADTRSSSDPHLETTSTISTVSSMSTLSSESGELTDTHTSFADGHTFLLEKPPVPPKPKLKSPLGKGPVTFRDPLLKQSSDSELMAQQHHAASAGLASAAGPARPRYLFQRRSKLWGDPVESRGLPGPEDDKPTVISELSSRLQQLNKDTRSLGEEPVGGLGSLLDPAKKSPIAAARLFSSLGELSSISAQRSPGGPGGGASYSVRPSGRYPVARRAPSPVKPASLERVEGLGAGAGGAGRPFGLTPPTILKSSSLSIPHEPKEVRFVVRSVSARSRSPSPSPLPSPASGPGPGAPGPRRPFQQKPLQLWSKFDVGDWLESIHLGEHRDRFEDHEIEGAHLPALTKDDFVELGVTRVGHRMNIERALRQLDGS

effect of a mutation on the interaction: disrupting interaction strength
Substance: Voltage-dependent L-type calcium channel subunit alpha-1D (Homo sapiens), Q01668 R1908G
